The record followed here is the nanobody polyreactivity screen of Harvey et al. (2022).

The data set is described as follows: yeast display, Sf9 membrane polyspecificity reagent, FACS + sequencing; frameworks hold sequencing errors. The procedure, abridged:
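Synthetic nanobody libraries on Saccharomyces cerevisiae BJ5465 were galactose-induced for 36–48 hours, stained 1 hour at 4 °C with 10% biotinylated, detergent-solubilized Sf9 membrane reagent and enriched on streptavidin microbeads. FACS then separated cells into low and high (top ~1%) gates by anti-HA (expression) and streptavidin (reagent binding) fluorescence. Genes were colony-PCR amplified, MiSeq 2 × 250 sequenced and CDR-length filtered. A clone's polyreactivity label is that of its gate of origin.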
With “QVQLVESGGGLVQAGGSLRLSCAASGSIFQYYAMGWYRQPPGKEREFVAAITSDGSSTYYADSVKGRFTISRDNAKNTVYLQMNSLKPEDTAVYDCAAGWVGDRRPSMYYWGQGTQVTVSS”, the “polyreactivity (PSR sort gate)” value is “high polyreactivity”.

Take “QVQLVESGGGLVQAGGSLRLSCAASGSIFQYYVMGWYRQAPGKERELVAAIRRSGTTYYADSVKGRFTISRDNAKNTVYLQMNSLNPEDTAVYYCNKVRGQEPSNYDYWGQGTQVTVSS”: the “polyreactivity (PSR sort gate)” value is given as “low polyreactivity”.

“QVQLVESGGGLVQAGGSLRLSCAASGSIFQYYVMGWYRQAPGKERELVAAIRRSGTTYYADSVKGRFTISRDNAMITVYLQMNSLKPEVTAFYYCKKVRCQEPSNYDYWGQGTQVTVSS”: the “polyreactivity (PSR sort gate)” value was “low polyreactivity”.

As to “QVQLVESGGGLVQAGGSLRLSCAASGSIFQYYVMGWYRQAPGKERELVAAISQSGGRTYYADSVKGRFTISRDNAKNTVYLQMNSLKPVDTAVFYCAADSRNAEYDYWGQGTQVTVSS”, the “polyreactivity (PSR sort gate)” value was “high polyreactivity”.

For “QVQLVESGGGLVQAGGSLRLSCAASGSIFRANALGWYRPAPGKERELVAAISASGGRTYYADSVKGRFTISRDNAKNTVYLQMNSLKPEDTAVYYCNAYYGYLYHYTYDYWGQGTQVTVSS”, the “polyreactivity (PSR sort gate)” value is “high polyreactivity”.

Consider “QVQLVESGGGLVQAGGSLRLSCAASGSIFRAYAMGGYRQAPGKERELVAAINWTDGSTYYAASVKGRFTISRDYAKNTVYLQMNSLKPEDTAVYYCAKDSMARHNYWGQGTQVTVSS”, for which the “polyreactivity (PSR sort gate)” value is reported as “low polyreactivity”.

In the case of “QVQLVESGGGLVQAGGSLRLSCAASGSIFRAYAMGWYRQAPGKERELVAAINWTDGSTYYADSVKGRFTISRDNAKNTVYLQMNSLKPEDTAVYYCAKDSIARHNYWGQGTQVTVSS”, the “polyreactivity (PSR sort gate)” value is “low polyreactivity”.

In the case of “QVQLVESGGGLVQAGGSLRLSCAASGSIFRAYAMGWYRQAPGKERELVATISWSGTSTSYADSVKGRFTISRDNAKNTVYLQMNSLKPEDTAVYYCAAGYASGPRPQTAYYYWGQGTQVTVSS”, the “polyreactivity (PSR sort gate)” value was “low polyreactivity”.

For the sequence “QVQLVESGGGLVQAGGSLRLSCAASGSIFRDNAMGWYRQAPGKERELVAAITDSGGRTYYADSVKGRFTISRDNAKNTVYLQMNSLKPEDTAVYYCAAGQSGYAGRRPAFGYWGQGTQVTVSS”, the “polyreactivity (PSR sort gate)” value was “low polyreactivity”.

Consider “QVQLVESGGGLVQAGGSLRLSCAASGSIFRDNVMGWYRQAPGKERELVAAISKRGGSTYYADSVKGRFTISRDNAKNTVYLQMNSLKPEDTAVYYCAAPQGRSHYYRYDYWGQGTQVTVSS”, for which the “polyreactivity (PSR sort gate)” value is “high polyreactivity”.

Take “QVQLVESGGGLVQAGGSLRLSCAASGSIFRDYAMGWYRQAPGKEMELVAAISSDGSTYYADSVKGRFTISRDNAKNTVYLQMNSLKPEDTAVYYCNAAHVAHRFIGYTRWNYYYWGQGTQVTVSS”: the “polyreactivity (PSR sort gate)” value is reported as “high polyreactivity”.

For the sequence “QVQLVESGGGLVQAGGSLRLSCAASGSIFRDYAMGWYRQAPGKERELVAAITWSGGRTYYADSVKGRFTISRDNAKNTVYLQMNSLKPEDTAVYYCAARSTRQYEYDYWGQGTQVTVSS”, the “polyreactivity (PSR sort gate)” value was “low polyreactivity”.

As for “QVQLVESGGGLVQAGGSLRLSCAASGSIFRFYAMGWYRQAPGKERELVAAITRRGGRTYYADSVKGRFTISRDNAKNTVYLQMNSLIPEDTAVYYCAAASKKPPSFEYNYWGQGTQLTVSS”, the “polyreactivity (PSR sort gate)” value is listed as “high polyreactivity”.

Regarding “QVQLVESGGGLVQAGGSLRLSCAASGSIFRFYAMGWYRQAPGKERELVATISKRGGTTYYADSVKGRFTISRDNAKNTVYLQMNSLKPEDTAVYYCAVRLYLEMDYWGQGTPVTVSS”, the “polyreactivity (PSR sort gate)” value was “high polyreactivity”.

With “QVQLVESGGGLVQAGGSLRLSCAASGSIFRFYAMGWYRQAPGTERELVAAISSSGSSTYYADSVKGRFTISRDNAMNTVYLQMNSLKPEDTAVYYCNARLGWSRAWSMDSWGQGTQVTVSS”, the “polyreactivity (PSR sort gate)” value is on record as “high polyreactivity”.

Turning to “QVQLVESGGGLVQAGGSLRLSCAASGSIFRFYTMGWYRQAPGKERELVAAIRYRVTSTYYADSVKGRFTMSRDNAKNTVYLQMNSLTPEDTAVYYCAVRRAKRRSQGVSYASYAGNYNYWGLGTQVTVSS”, the “polyreactivity (PSR sort gate)” value is “high polyreactivity”.

For the sequence “QVQLVESGGGLVQAGGSLRLSCAASGSIFRGKAMGWYRQAPGKERELVAAITRSGGRTYYADSVKGRFTISRDNAKNTVYLQMNSLKPDDTAVYYCAAEYYTGLGYWGQGTQVTVSS”, the “polyreactivity (PSR sort gate)” value is reported as “high polyreactivity”.

For the sequence “QVQLVESGGGLVQAGGSLRLSCAASGSIFRGNAMGWSRQAPAKERELVAAISKSGGSTYYADSVKGRFTISRDNAKNTVYLQMNSLKPEDTAVYYCAARTTYLYGMYYWGQGTQVTVSS”, the “polyreactivity (PSR sort gate)” value was “low polyreactivity”.

Turning to “QVQLVESGGGLVQAGGSLRLSCAASGSIFRGNAMGWYRQAPGKERELVASISYSGGSTYYADSVKGRFTISRDNAKNTVYLQMNSLKPEDTAVYYCAADESVAYPYSGYQYYRHIYDYWGQGTQVTVSS”, the “polyreactivity (PSR sort gate)” value is recorded as “low polyreactivity”.

Consider “QVQLVESGGGLVQAGGSLRLSCAASGSIFRGNGMGWYTQAPGKERELVAAISRSGGRTYYADSVKGRFTISRDNAKNTVYLQMISLNPEDTAVYSCNAARSYQYDYWGQGTQVTVSS”, for which the “polyreactivity (PSR sort gate)” value is listed as “high polyreactivity”.

As to “QVQLVESGGGLVQAGGSLRLSCAASGSIFRGYAMGWYRQAPGKERELVAAIRYSGARTYYADSVKGRFTISRDNAKNTVYLQMNSLKPEDTAVYYCNARYIRSYDYWGQGTQVTVSS”, the “polyreactivity (PSR sort gate)” value is listed as “high polyreactivity”.

On to “QVQLVESGGGLVQAGGSLRLSCAASGSIFRGYAMGWYRQAPGKERELVAAITSRGGSTYYADSVKGRFTISRDIAKNTVYLQMNSLKPEDTAVYYCNKRVYYPWGQGTQVTVSS”, for which the “polyreactivity (PSR sort gate)” value is recorded as “high polyreactivity”.

Consider “QVQLVESGGGLVQAGGSLRLSCAASGSIFRGYAMGWYRQAPGKERELVAAITSSGGSTNYADSVKGRFTISRDNAKNTVYLQMNSLKPEDTAVYYCNATSEEVAEYDYWGQGTQVTVSS”, for which the “polyreactivity (PSR sort gate)” value is “low polyreactivity”.

Consider “QVQLVESGGGLVQAGGSLRLSCAASGSIFRGYAMGWYRQAPGKERELVASIRWRGGRTNYADSVKGRFTISRDNAKNTVYLQRNSLKPEDTAVYYCNADQQTIRSAKNDYWGQGTQVTVSS”, for which the “polyreactivity (PSR sort gate)” value is “low polyreactivity”.

As for “QVQLVESGGGLVQAGGSLRLSCAASGSIFRGYDMGWYRQAPGKERELVARISRGTGTHYADSVKGRFTISRDNAKNTVYLQMNSLKPEDTAVYYCAARYRYYPVTTRGYYWGQGTQVTVSS”, the “polyreactivity (PSR sort gate)” value is on record as “high polyreactivity”.

“QVQLVESGGGLVQAGGSLRLSCAASGSIFRINAMGWYITAPGKERELVAAISWSGGSTYYADSVKGRFTISRDNAKNTVYLQMNSLKPEDTAVYYCAAVVSKSSFDYWGQGTQVTVSS”: the “polyreactivity (PSR sort gate)” value is reported as “low polyreactivity”.

Consider “QVQLVESGGGLVQAGGSLRLSCAASGSIFRINTMGWYLQAPGKERELVAAISFSGTRTYYADSVKGRFTISRDNAKNTVYLQMNSLKPEDTAVYYCAAAGRYTYRTLRDYWGQGTQVTVSS”, for which the “polyreactivity (PSR sort gate)” value is given as “high polyreactivity”.

“QVQLVESGGGLVQAGGSLRLSCAASGSIFRINVMGWYRQAPGKERELVAAITRGDSTNYADSVKGRFTISRDNAKNSVYLQMNSLKPEDTAVYYCAAGYYYYLRDHDYWGQGTQVTVSS”: the “polyreactivity (PSR sort gate)” value is “low polyreactivity”.

With “QVQLVESGGGLVQAGGSLRLSCAASGSIFRIYAMGWYRQAPGKERELVAAISFSTGSRTYYADSVKGRFTISRDNAKNTVYLQMNSLKPEDTAVYYCNAESYYDYNYWGQGNQVTVSS”, the “polyreactivity (PSR sort gate)” value was “low polyreactivity”.

As to “QVQLVESGGGLVQAGGSLRLSCAASGSIFRIYAMGWYRQAPGKERELVAAISRGSTRTYYADSVKGRFTISRDNAKNTVYLQMNSLKPEDTAVYYCNKAYPPEYDYWGQGTQVTVSS”, the “polyreactivity (PSR sort gate)” value is “high polyreactivity”.

“QVQLVESGGGLVQAGGSLRLSCAASGSIFRIYRMGWYRQAPGKERELVAAISYSGGNTYYADSVKGRFTISRDNAKNTVYLQMNSLKPEDTAVYYCAAVPYRKHSYPFRLNYWGQGTQVTVSS”: the “polyreactivity (PSR sort gate)” value is listed as “high polyreactivity”.

Take “QVQLVESGGGLVQAGGSLRLSCAASGSIFRKYAMGWYRQAPGKEREFVAVITTDGSTNYADSVKRRFTISRDNAKNTVYLQMNSLKPEDTAVYYCNAFRSSIGTDNDFWGQGTQVTVSS”: the “polyreactivity (PSR sort gate)” value is “low polyreactivity”.

Turning to “QVQLVESGGGLVQAGGSLRLSCAASGSIFRKYAMGWYRQAPGKERELVAVITTDGSTNYADSVKGRFTISRDNAKNTVNLQMNSLKPEDSAVYYCNAVRSSIGTDNDFWGQGTLVTVSS”, the “polyreactivity (PSR sort gate)” value is “low polyreactivity”.

On to “QVQLVESGGGLVQAGGSLRLSCAASGSIFRKYSMGWYRQAPGKERELVAGITGRGGRTYYADSVKGRFTISRDNAKNTVYLQMNSLKPDDTAVYYCAATVSPSYDYWGQGTQVTVSS”, for which the “polyreactivity (PSR sort gate)” value is “high polyreactivity”.

With “QVQLVESGGGLVQAGGSLRLSCAASGSIFRLYAMGWYRQAPGKERELVAVISYSGGSTYYADSVKGRFTISRDNAKNTVYLQMNSLNPEDTAVYYCAARRRWYGIRNYYWGQGSQVTVSS”, the “polyreactivity (PSR sort gate)” value is reported as “high polyreactivity”.

For the sequence “QVQLVESGGGLVQAGGSLRLSCAASGSIFRNAMGWYRQAPGKERELVATISYRGGSTYYADSVKGRFTISRDNAKNTVYLQMNSLKPEDTAVYYCNADSKLVGYNYWGQGTQVTVSS”, the “polyreactivity (PSR sort gate)” value is given as “low polyreactivity”.

On to “QVQLVESGGGLVQAGGSLRLSCAASGSIFRNYAMGLYRQAPGKERELVAAISSRGGTTHYADSVKGRFTISRDNAKNTVYLQMNSLKPEDTAVYYCAADYYLATNPAPLAAGRGYWGQGTQVTVSS”, for which the “polyreactivity (PSR sort gate)” value is on record as “high polyreactivity”.

Take “QVQLVESGGGLVQAGGSLRLSCAASGSIFRPKAMGWYRQAPGKERELVAAINTSDDSTYYADSVKGRFTISRDNAKNSVYLQMNSLKPEDTAVYYCAAEYYAYPYGDYYDYWGQGTQVSVSS”: the “polyreactivity (PSR sort gate)” value is given as “low polyreactivity”.

For “QVQLVESGGGLVQAGGSLRLSCAASGSIFRPNAMGWYRQAPGTEREFVASISGRVGSTYYADSVKGRFTISRDNAKNTVYLQMNSLKPEDTAVYYCAADSRGGYKRNYWGQGTQVTVSS”, the “polyreactivity (PSR sort gate)” value is recorded as “high polyreactivity”.

“QVQLVESGGGLVQAGGSLRLSCAASGSIFRPYAMGWSRQAPGKERELVAAISWRSGRTYYADSVKGRFTISRDNAKNTVYLQMNSLKPEDTAVYYCAADLASYAYRYDYWGQGTQVTVSS”: the “polyreactivity (PSR sort gate)” value is “high polyreactivity”.

“QVQLVESGGGLVQAGGSLRLSCAASGSIFRPYAMGWYRPAPGKERELVAAITSGGRTNYADSVKGRFTISRDNAKNTVYLQMNSLKPEDTAVYYCAKTGSYAKIRPNNDYWGQGTQVTVSS”: the “polyreactivity (PSR sort gate)” value was “low polyreactivity”.
